Test [1] addresses murine CD19 (mouse) (UniProt P25918). Kind of test: flow cytometry of mouse peripheral blood, 4hrs after i.v. injection of 50 ug anti-murine CD19-FITC, CD19-FITC in master mix [CONT'D) D]. (Flow cytometry measures light scatter and fluorescence of single cells or particles in a stream.)
Test [2] has the same target. The experiment in a line: flow cytometry of mouse peripheral blood, Day 1 after i.v. injection of 50 ug anti-murine CD19-FITC, CD19-FITC in master mix [CONT'D) D].
For test [3] the target is unchanged. Kind of test: flow cytometry of mouse peripheral blood, Day 1 after i.v. injection of 50 ug anti-murine CD19-FITC, no CD19-FITC in master mix (injected antibody only) [CONT'D) D].
For test [4] the target is unchanged. Kind of test: flow cytometry of mouse peripheral blood, Day 5 after i.v. injection of 50 ug anti-murine CD19-FITC, CD19-FITC in master mix [CONT'D) D].
For test [5] the target is unchanged. The experiment in a line: flow cytometry of mouse peripheral blood, Day 5 after i.v. injection of 50 ug anti-murine CD19-FITC, no CD19-FITC in master mix (injected antibody only) [CONT'D) D].
For test [6] the target is unchanged. The experiment in a line: flow cytometry of mouse peripheral blood, 4hrs after i.v. injection of 50 ug anti-murine CD19-FITC, no CD19-FITC in master mix (injected antibody only) [CONT'D) D].
The target is the same in test [7]. Kind of test: flow cytometry of mouse peripheral blood, Day 8 after i.v. injection of 50 ug anti-murine CD19-FITC, CD19-FITC in master mix [CONT'D) D].
The target is the same in test [8]. Kind of test: flow cytometry of mouse peripheral blood, Day 8 after i.v. injection of 50 ug anti-murine CD19-FITC, no CD19-FITC in master mix (injected antibody only) [CONT'D) D].

Chain of murine CD19 (mouse) (P25918 19-547): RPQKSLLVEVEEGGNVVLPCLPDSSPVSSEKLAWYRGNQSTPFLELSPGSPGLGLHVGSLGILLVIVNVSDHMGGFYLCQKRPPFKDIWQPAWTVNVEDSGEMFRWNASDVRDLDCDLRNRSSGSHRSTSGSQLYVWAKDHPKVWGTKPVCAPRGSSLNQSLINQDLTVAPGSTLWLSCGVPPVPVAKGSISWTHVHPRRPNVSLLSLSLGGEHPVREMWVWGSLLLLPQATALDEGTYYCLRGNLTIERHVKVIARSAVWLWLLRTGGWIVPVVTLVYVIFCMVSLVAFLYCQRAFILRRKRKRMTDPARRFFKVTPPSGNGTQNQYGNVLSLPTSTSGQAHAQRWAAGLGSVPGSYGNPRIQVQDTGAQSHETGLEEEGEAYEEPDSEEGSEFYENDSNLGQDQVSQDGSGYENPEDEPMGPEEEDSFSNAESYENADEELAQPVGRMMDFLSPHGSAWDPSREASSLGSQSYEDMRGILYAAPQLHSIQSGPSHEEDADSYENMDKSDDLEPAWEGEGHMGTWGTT

Turning to “anti-murine CD19-FITC antibody (Biolegend; clone 1D3)”, the CD19+CD20+ gate (share of cells in the gate) in test [1] turned out to be 53; in test [2] it was 52.3; in test [3] it was 49.1; in test [4] it was 43.6; in test [5], 44; in test [6], 52.7. Moreover, the results for the CD19+CD20+ gate (share of cells in the gate) in test [7] and in test [8] were 36.4 and 38.3, respectively.
